In test [1] the target is T1, recombinant Human IL-17BR-His extracellular domain (human, UniProt Q9NRM6 18-292).
T1 construct: extracellular domain; also called human IL17BR-his tag protein
T1 sequence (looked up): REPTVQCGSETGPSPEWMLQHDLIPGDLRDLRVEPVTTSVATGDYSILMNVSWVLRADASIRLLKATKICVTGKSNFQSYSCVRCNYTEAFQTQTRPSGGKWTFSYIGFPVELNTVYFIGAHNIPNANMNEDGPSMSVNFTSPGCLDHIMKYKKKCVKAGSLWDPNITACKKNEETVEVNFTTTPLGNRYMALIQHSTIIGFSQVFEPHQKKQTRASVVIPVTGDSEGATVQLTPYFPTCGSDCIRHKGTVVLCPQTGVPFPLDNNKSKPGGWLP
The test is described as follows: binding ELISA on Human IL-17BR-His, absorbance 650 nm against antibody conc. (nM).

The target of test [2] is T1, recombinant Human IL-17BR-His …. The test is described as follows: Biacore T200, antibody captured by anti-human Fc, Human IL17BR-His 20-1.25 nM, 1:1 model. On the procedure:
A Human Antibody Capture kit was used to coat an anti-human IgG (Fc) antibody (in 10 mM sodium acetate, pH 5.0 immobilisation buffer) onto flow paths 2-4 a CM5 chip. Flow-path 1 was blocked and used as a blank control. This anti-human IgG coated chip was then used to immobilize the humanized antibody variants. A concentration series from 20-1.25 nM of Human IL17BR-His using a 2-fold dilution series was made using HBS-EP⁺ buffer. Purified antibody samples were diluted to 1 μg/ml in HBS-EP⁺ buffer and each injected onto one coated flow-path on the chip at a flow-rate of 10 μl/min for 2 mins in a Biacore T200 (GE Healthcare). Association time was set to 8 mins and Dissociation to 90 mins at a flow-rate of 30 μl/min Kinetics of binding/dissociation were analysed using a 1:1 model in the BIAevaluation software
8. Kinetics of the Binding of Humanized hD9040, hD9041 and hD9042 Antibodies to IL-17BR To further characterize the binding of the lead humanized candidates hD9040, hD9041 and hD9042 antibodies to Human IL-17BR-His, kinetics experiments were performed using the Biacore T200 instrument.

For test [3], the target named is T2, human IL17RA-Fc fusion protein (human, UniProt Q96F46 33-320).
T2 construct: Bought; not shown: Fc part of the bought fusion, not described
T2 sequence (looked up): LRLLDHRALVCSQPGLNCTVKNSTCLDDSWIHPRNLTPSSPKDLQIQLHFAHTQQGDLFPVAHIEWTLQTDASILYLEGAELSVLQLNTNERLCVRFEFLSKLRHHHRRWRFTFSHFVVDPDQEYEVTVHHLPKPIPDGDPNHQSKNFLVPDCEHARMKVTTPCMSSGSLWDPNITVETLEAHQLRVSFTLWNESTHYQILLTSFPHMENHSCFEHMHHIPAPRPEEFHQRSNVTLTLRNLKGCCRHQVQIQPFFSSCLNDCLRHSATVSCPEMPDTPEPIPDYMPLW
The test is described as follows: ELISA, plate coated with 2 ug/ml human IL17RA-Fc fusion protein, absorbance 450 nm. On the procedure: (§1) ELISA plates were coated overnight at 4° C. with 2 μg/ml human IL17RA-Fc fusion protein(Sino Biological, 10895-H03H), human IL17BR-his tag protein (Sino Biological, 13091-H08H), human IL17RC-histag protein (11747-H08B), human IL17RD-his tag (10507-H08H). The next day, plates were blocked with 1% BSA in PBS, followed by the addition of hD9042. The binding specificity of hD9042 was measured as the absorbance at 450 nm using anti-human IgG F(ab′)2 peroxidase antibody (Jackson ImmunoResearch Inc).
In general terms: ELISA stands for enzyme-linked immunosorbent assay.

In test [4] the target is T3, human IL17RD-his tag (human, UniProt Q8NFM7 17-299, limits assumed).
T3 construct: Bought
T3 sequence (looked up): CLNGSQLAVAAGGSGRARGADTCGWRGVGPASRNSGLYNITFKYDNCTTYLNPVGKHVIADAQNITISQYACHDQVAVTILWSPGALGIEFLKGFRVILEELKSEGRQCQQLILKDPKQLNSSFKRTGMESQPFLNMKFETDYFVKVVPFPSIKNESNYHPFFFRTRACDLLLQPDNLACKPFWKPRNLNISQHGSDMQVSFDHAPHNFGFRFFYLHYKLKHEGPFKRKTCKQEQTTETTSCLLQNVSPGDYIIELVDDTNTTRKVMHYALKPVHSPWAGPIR
The test is described as follows: ELISA, plate coated with 2 ug/ml human IL17RD-his tag, absorbance 450 nm. How it is done:
as §1

The target in test [5] is T1, recombinant Human IL-17BR-His …. The test is described as follows: ELISA, plate coated with 2 ug/ml human IL17BR-his tag protein, detection with anti-human IgG F(ab')2 peroxidase antibody. On the procedure: as §1
Test [6] deals with T4, human IL17RC-histag protein (human, UniProt Q8NAC3-2 21-467, limits assumed).
T4 construct: Bought
T4 sequence (looked up): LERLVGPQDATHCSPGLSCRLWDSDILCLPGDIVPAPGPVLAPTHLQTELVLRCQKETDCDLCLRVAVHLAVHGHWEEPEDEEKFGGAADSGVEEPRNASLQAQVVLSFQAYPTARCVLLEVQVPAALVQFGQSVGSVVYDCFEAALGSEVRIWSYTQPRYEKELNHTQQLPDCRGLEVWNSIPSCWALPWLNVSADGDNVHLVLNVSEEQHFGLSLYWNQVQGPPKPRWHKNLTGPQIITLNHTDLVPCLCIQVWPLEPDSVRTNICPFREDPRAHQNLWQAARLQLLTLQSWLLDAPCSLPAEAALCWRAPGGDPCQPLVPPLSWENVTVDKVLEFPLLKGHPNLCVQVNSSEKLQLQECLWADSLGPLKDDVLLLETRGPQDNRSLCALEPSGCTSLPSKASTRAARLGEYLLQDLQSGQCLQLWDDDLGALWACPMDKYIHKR
The test is described as follows: ELISA, plate coated with 2 ug/ml human IL17RC-histag protein, absorbance 450 nm. How it is done:
as §1

Test [7] deals with T1, recombinant Human IL-17BR-His …. The test is described as follows: binding ELISA on recombinant Human IL-17BR-His extracellular domain, absorbance 450 nm against antibody conc. (nM).
For test [8], the target named is Cynomolgus monkey IL-17BR-monoFc (cynomolgus monkey, UniProt A0A2K5TUK1 18-292). The test is described as follows: binding ELISA on recombinant Cynomolgus monkey IL-17BR-monoFc extracellular domain, absorbance 450 nm against antibody conc. (nM).
The target in test [9] is T5, Mouse IL-17BR-(Fc) (mouse, UniProt Q9JIP3 18-286).
T5 construct: extracellular domain; Bought (Sino Biological); not shown: Fc part of the bought fusion (Sino Biological), not described
T5 sequence (looked up): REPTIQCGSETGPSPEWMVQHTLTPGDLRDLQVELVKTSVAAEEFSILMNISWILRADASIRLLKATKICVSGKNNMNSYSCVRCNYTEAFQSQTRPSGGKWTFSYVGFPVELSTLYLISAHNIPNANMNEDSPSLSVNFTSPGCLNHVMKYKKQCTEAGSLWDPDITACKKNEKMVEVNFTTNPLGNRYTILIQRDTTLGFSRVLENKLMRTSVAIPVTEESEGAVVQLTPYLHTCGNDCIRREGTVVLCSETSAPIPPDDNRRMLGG
The test is described as follows: binding ELISA on recombinant Mouse IL-17BR-(Fc) extracellular domain, absorbance 450 nm against antibody conc. (nM).

This is an account of results in patent US20220041740A1 (LIFEARC, published 2022).

Broadly, the EC50 is the midpoint of the concentration-response curve. As usually defined, the Kd is the free concentration of one partner at which half of the binding sites on the other are occupied at equilibrium, for simple one-to-one binding. Broadly, the koff is the first-order rate constant of dissociation. A word on the kon: it is the rate constant with which the complex forms. As a reminder, the EC50 (read off the curve) is the concentration giving half of the maximal effect.

Sequence of Cynomolgus monkey IL-17BR-monoFc (A0A2K5TUK1 entry or part of it): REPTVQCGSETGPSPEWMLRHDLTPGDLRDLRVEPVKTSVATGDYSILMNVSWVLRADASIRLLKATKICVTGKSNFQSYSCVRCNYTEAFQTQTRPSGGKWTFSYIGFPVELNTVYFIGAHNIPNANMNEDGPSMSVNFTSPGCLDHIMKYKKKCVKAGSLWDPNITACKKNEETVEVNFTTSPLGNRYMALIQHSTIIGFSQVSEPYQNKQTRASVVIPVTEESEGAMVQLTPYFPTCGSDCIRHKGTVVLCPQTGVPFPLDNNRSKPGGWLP

B1: humanized antibody hD9040 (antibody, V domains shown)
VH: EVQLVQSGAEVKKPGASVKVSCKTSGYTFISYWMNWVRQAPGQGLEWMGRIDPYDSEIQYNQKFKDRVTLTRDTSISTAYMELSRLRSDDTAVYYCARSGGFDWFAYWGQGTLVTVSS
VL: DIQMTQSPSSLSASVGDRVTITCRASENINSNLAWYQQKPGKAPKLLLYDVTNLADGVPSRFSGSGSGTDYTLTISSLQPEDFATYYCQHFWGPPYTFGGGTKVEIK
notes: Human IgG1/kappa (pHuG1, pHuK vectors)
Consider B1, for which, in test [1], the 50% effective concentration (EC50) stood at 0.474 nM. For the same molecule, in test [2], the Kd turned out to be 0.02 nM, the off-rate (koff) came out at 6.66e-05 s⁻¹ and the kon was found to be 3.42e+06 M⁻¹ s⁻¹.

B2: humanized antibody hD9041 (antibody, V domains shown)
VH: EVQLVQSGAEVKKPGASVKVSCKTSGYTFISYWMNWVRQAPGQGLEWMGRIDPYDSEIQYAQKFQGRVTLTRDTSISTAYMELSRLRSDDTAVYYCARSGGFDWFAYWGQGTLVTVSS
VL: DIQMTQSPSSLSASVGDRVTITCRASENINSNLAWYQQKPGKAPKLLLYDVTNLADGVPSRFSGSGSGTDYTLTISSLQPEDFATYYCQHFWGPPYTFGGGTKVEIK
notes: as for B1
With B2, in [1], the half-maximal effective concentration (EC50) was 0.499 nM. Besides, in test [2], the Kd was determined as 0.011 nM, the koff stood at 4.44e-05 s⁻¹ and the on-rate constant (kon) was 3.89e+06 M⁻¹ s⁻¹.

B3: humanized antibody hD9042 (antibody, V domains shown)
VH: QVQLVQSGAEVKKPGASVKVSCKASGYTFISYWMNWVRQAPGQGLEWMGRIDPYDSEIQYNQKFKDRVTMTRDTSISTAYMELSRLRSDDTAVYYCARSGGFDWFAYWGQGTLVTVSS
VL: DIQMTQSPSSLSASVGDRVTITCRASENINSNLAWYQQKPGKAPKLLLYDVTNLADGVPSRFSGSGSGTDYTLTISSLQPEDFATYYCQHFWGPPYTFGGGTKVEIK
notes: Human IgG1/kappa (pHuG1, pHuK vectors); also called lead candidate
Take B3: the binding result in [3], in [4] and in test [6] was “no binding” each time. Moreover, the concentration for a half-maximal effect (EC50) in test [1] came out at 0.414 nM. The half-maximal effective concentration (EC50 (read off the curve)) in [5] is ~0.3 nM. In addition, the Kd in test [2] stood at 0.017 nM. The off-rate (koff) in test [2] is 8.23e-05 s⁻¹. For the same molecule, the on-rate constant (kon) in test [2] was 4.85e+06 M⁻¹ s⁻¹.

B4: chimeric antibody cD9001 (antibody, V domains shown)
VH: QVQLQQPGAELVRPGASVKLSCKTSGYTFISYWMNWVKQGPEQGLEWIGRIDPYDSEIQYNQKFKDKAILTVDKSSSAAYMQLISLTSEDSAVYYCARSGGFDWFAYWGQGTLVTVSA
VL: DIQMTQSPASLSVSVGETVTITCRASENINSNLAWYQQKKGKSPQLLVYDVTNLADGVPSRFSGSGSGTQYSLKINSLQSEDFGSYYCQHFWRPPYTFGGGTNLEIK
notes: Mouse D9.2 variable domains on human IgG1/kappa constant regions; also called chimeric D9.2
Take B4: the EC50 in test [7] came out at 0.23 nM; in [8] it was 0.291 nM; in test [9] it was 0.216 nM. Moreover, in test [2], the Kd is 0.017 nM. For the same molecule, the dissociation rate constant (koff) in [2] came out at 5e-05 s⁻¹. Moreover, the kon in [2] was 2.9e+06 M⁻¹ s⁻¹.
